# Assay results as given in US20050130898A1 (HIDECHIKA OKADA, published 2005).
# Bridge positions count the residues as written; N and C are the ends. Ends that are not written are not given here. I, II: the chains in the order shown.
# T1: CPI-2KR (linear 9-mer peptide Cys-Lys-Pro-Ala-Lys-Asn-Ala-Arg-Cys)
# T1 chain: CKPAKNARC
# T2: Carboxypeptidase R (CPR) (human, UniProt Q96IY4 115-423)
# T2 construct: domain: 309-amino acid enzyme (CPR; 35 kDa) after cleavage at Arg92; also called plasma carboxypeptidase B (CPB); carboxypeptidase U (CPU)
# T2 sequence (looked up): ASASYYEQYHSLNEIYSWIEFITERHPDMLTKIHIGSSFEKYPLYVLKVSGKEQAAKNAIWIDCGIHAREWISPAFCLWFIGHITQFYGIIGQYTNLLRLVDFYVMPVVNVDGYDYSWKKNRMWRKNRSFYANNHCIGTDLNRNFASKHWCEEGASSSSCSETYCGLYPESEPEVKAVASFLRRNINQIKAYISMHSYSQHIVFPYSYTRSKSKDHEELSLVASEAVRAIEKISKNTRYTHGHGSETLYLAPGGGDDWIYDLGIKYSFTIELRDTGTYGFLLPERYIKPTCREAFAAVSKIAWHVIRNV
# Experiments:
# [1] = biological target: T1, CPI-2KR (linear 9-mer peptide …)
# [2] = biological target: T2, Carboxypeptidase R (CPR); experiment: enzyme kinetics, CPR hydrolysis of hippuryl-L-arginine, competitive inhibition
# Procedure: (§1) The reduced inhibitory activity of this PCI-derived peptide may be attributed to the absence of two of the three disulfide bridges founds in wild type PCI, effectively resulting in increased mobility of all residues.
# (§2) The activity of the CPR inhibitors was determined against purified CPR using hippuryl-L-arginine as the substrate. The peptides PCI-2K-R, CPI-2KR, PCI (500, 250/125/62.5, 50 mg/ml, respectively) or Tris-HCl buffer (50 mM; pH 7.5) were added to active CPR (40-320 mg/ml) at a 1:7 ratio. After thorough mixing, […] was incubated with various concentrations of hippuryl-L-arginine (1.2-6.0 mM), for 15 minutes at 37° C. The reaction was stopped with the addition of sodium phosphate buffer ([…]; 0.25 M), immediately followed by 3% cyanuric chloride in 1,4-dioxane ([…]). After mixing well, the generation of hippuric acid was determined by measuring the OD at 405 nm on a SpectraMAX 250 Microplate Spectrophotometer (Molecular Device Corporation, Sunnyvale, Calif., USA). Hippuric acid (0-2.0 mM) in Tris buffer was used as the standard.
# (§3) A kinetics analysis of the CPR-catalysed hydrolysis of hippuryl-L-arginine in the absence and presence of inhibitory molecules was performed. The Lineweaver-Burk reciprocal plot, based on rearrangement of the Henri-Michaelis-Menten equation into a linear form, was applied: […]
# [3] = biological target: T2, Carboxypeptidase R (CPR); experiment: enzyme kinetics, Ki against that of PCI
# Procedure: as §1, §2, §3
# [4] = biological target: T2, Carboxypeptidase R (CPR); experiment: enzyme kinetics, Ki against that of PCI-2K-R
# Procedure: (§4) In order to gain insight into the inhibitory mechanism of CPI-2KR against CPR, a classical Henri-Michaelis-Menten kinetics analysis was performed. Since the Lineweaver-Burke plot (FIG. 3C) is prone to error, particularly at low concentrations of inhibitor and substrate, the Dixon plot (1/v versus [I]) was employed to evaluate the inhibitory mechanism of CPI-2KR (FIG. 3D). Replotting of the slopes of the Dixon plot against 1/[S] confirmed that CPR-2KR is a competitive inhibitor of CPR given that the line went through the origin (FIG. 3D insert). The Km Kmₐₚₚ and Vmax were determined from the data obtained for no inhibitor and the highest inhibitor concentration (253 nM) from the Lineweaver-Burke plots (FIG. 3E) . These values were in turn used to calculate the dissociation constant of CPI-2KR (Ki).
# (§5) The activity of the CPR inhibitors was determined against purified CPR using hippuryl-L-arginine as the substrate. The peptides PCI-2K-R, CPI-2KR, PCI (500, 250/125/62.5, 50 mg/ml, respectively) or Tris-HCl buffer (50 mM; pH 7.5) were added to active CPR (40-320 mg/ml) at a 1:7 ratio. […] After mixing well, the generation of hippuric acid was determined by measuring the OD at 405 nm on a SpectraMAX 250 Microplate Spectrophotometer (Molecular Device Corporation, Sunnyvale, Calif., USA). […]
# [5] = biological target: T2, Carboxypeptidase R (CPR); experiment: cell-based or functional assay
# [6] = biological target: T2, Carboxypeptidase R (CPR); experiment: enzyme kinetics, CPR hydrolysis of hippuryl-L-arginine, Lineweaver-Burke at 253 nM inhibitor
# Procedure: as §4, §5
binder,measurement,setting,value
Carboxypeptidase R (CPR) (protein) ASASYYEQYHSLNEIYSWIEFITERHPDMLTKIHIGSSFEKYPLYVLKVSGKEQAAKNAIWIDCGIHAREWISPAFCLWFIGHITQFYGIIGQYTNLLRLVDFYVMPVVNVDGYDYSWKKNRMWRKNRSFYANNHCIGTDLNRNFASKHWCEEGASSSSCSETYCGLYPESEPEVKAVASFLRRNINQIKAYISMHSYSQHIVFPYSYTRSKSKDHEELSLVASEAVRAIEKISKNTRYTHGHGSETLYLAPGGGDDWIYDLGIKYSFTIELRDTGTYGFLLPERYIKPTCREAFAAVSKIAWHVIRNV,"Dixon plot and slope replot, CPR-catalysed hydrolysis of hippuryl-L-arginine",[1],confirmed that CPR-2KR is a competitive inhibitor of CPR
"PCI-2K-R (heterodimer of PCI-2K and PCI-R joined by a disulfide bond) (disulfide I:4-II:3; N-terminus assumed; SMILES C[C@H](NC(=O)[C@H](CO)NC(=O)[C@H](CC(N)=O)NC(=O)[C@H](Cc1c[nH]c2ccccc12)NC(=O)[C@H](CSSC[C@H](NC(=O)[C@@H]1CCCN1C(=O)[C@H](CCCCN)NC(=O)[C@@H](N)CC(N)=O)C(=O)N[C@@H](CCCCN)C(=O)N[C@H](C(=O)N[C@@H](Cc1c[nH]cn1)C(=O)N[C@@H](CC(=O)O)C(=O)N[C@@H](CC(=O)O)C(N)=O)[C@@H](C)O)NC(=O)[C@H](C)NC(=O)[C@@H](N)CCC(N)=O)C(=O)N[C@@H](CCCNC(=N)N)C(=O)N[C@H](C(N)=O)[C@@H](C)O, also called CPI-2K-R (label in claim 5)) chain 1: NKPCKTHDD-NH2 chain 2: QACWNSART-NH2",Ki,[2],407 nM
same,fold lower inhibitory activity compared to PCI,[3],290 fold
Carboxypeptidase N (CPN) (protein) chain 1: CPMGCDCFVQEVFCSDEELATVPLDIPPYTKNIIFVETSFTTLETRAFGSNPNLTKVVFLNTQLCQFRPDAFGGLPRLEDLEVTGSSFLNLSTNIFSNLTSLGKLTLNFNMLEALPEGLFQHLAALESLHLQGNQLQALPRRLFQPLTHLKTLNLAQNLLAQLPEELFHPLTSLQTLKLSNNALSGLPQGVFGKLGSLQELFLDSNNISELPPQVFSQLFCLERLWLQRNAITHLPLSIFASLGNLTFLSLQWNMLRVLPAGLFAHTPCLVGLSLTHNQLETVAEGTFAHLSNLRSLMLSYNAITHLPAGIFRDLEELVKLYLGSNNLTALHPALFQNLSKLELLSLSKNQLTTLPEGIFDTNYNLFNLALHGNPWQCDCHLAYLFNWLQQYTDRLLNIQTYCAGPAYLKGQVVPALNEKQLVCPVTRDHLGFQVTWPDESKAGGSWDLAVQERAARSQCTYSNPEGTVVLACDQAQCRWLNVQLSPQQGSLGLQYNASQEWDLRSSCGSLRLTVSIEARAAGP chain 2: VTFRHHRYDDLVRTLYKVQNECPGITRVYSIGRSVEGRHLYVLEFSDHPGIHEPLEPEVKYVGNMHGNEALGRELMLQLSEFLCEEFRNRNQRIVQLIQDTRIHILPSMNPDGYEVAAAQGPNKPGYLVGRNNANGVDLNRNFPDLNTYIYYNEKYGGPNHHLPLPDNWKSQVEPETRAVIRWMHSFNFVLSANLHGGAVVANYPYDKSFEHRVRGVRRTASTPTPDDKLFQKLAKVYSYAHGWMFQGWNCGDYFPDGITNGASWYSLSKGMQDFNYLHTNCFEITLELSCDKFPPEEELQREWLGNREALIQFLEQVHQGIKGMVLDENYNNLANAVISVSGINHDVTSGDHGDYFRLLLPGIYTVSATAPGYDPETVTVTVGPAEPTLVNFHLKRSIPQVSPVRRAPSRRHGVRAKVQPQARKKEMEMRQLQRGPA,CPN-catalysed hydrolysis of hippuryl-L-arginine,[1],CPI-2KR did not exhibit any inhibitory activity against CPN at 506 nM
"CKPAKNARC-NH2 (cysteine pairing not given here, Linear form, no disulfide between the terminal Cys residues) [CPI-2KR (linear 9-mer peptide Cys-Lys-Pro-Ala-Lys-Asn-Ala-Arg-Cys)]",fold stronger binding affinity than PCI-2K-R,[4],~46 fold
same,effective inhibitory concentration relative to PCI (fold),[5],10 fold
same,"effective inhibitory concentration, TM-induced retardation of t-PA-induced fibrinolysis",[5],126 nM
same,Ki,[6],8.8 nM
same,fold higher Ki than that of PCI,[3],6 fold
"QQHADPICNKPCKTHDDCSGAWFCQACWNSARTCGPYVG (other, UniProt P01075 1-39, looked up, disulfide 12-27, 18-34, 8-24, mature) [potato carboxypeptidase inhibitor (PCI)]",reversal of TM-induced suppression of t-PA-induced fibrinolysis in human plasma,[5],12 nM
same,Ki,[2],1.4 nM
